{"source": "patent US20250109178A1", "about": "(XYPHOS BIOSCIENCES, published 2025)", "binders": {"B1": {"name": "ULBP2.wt rituximab-MicAbody (bispecific antibody, human IgG1, kappa)", "heavy": "not shown", "light": "QIVLSQSPAILSASPGEKVTMTCRASSSVSYIHWFQQKPGSSPKPWIYATSNLASGVPVRFSGSGSGTSYSLTISRVEAEDAATYYCQQWTSNPPTFGGGTKLEIKRTVAAPSVFIFPPSDEQLKSGTASVVCLLNNFYPREAKVQWKVDNALQSGNSQESVTEQDSKDSTYSLSSTLTLSKADYEKHKVYACEVTHQGLSSPVTKSFNRGECAPTSSSGGGGSEPHSLSYDITVIPKFRPGPRWCAVQGQVDEKTFLHYDCGNKTVTPVSPLGKKLNVTTAWKAQNPVLREVVDILTEQLRDIQLENYTPKEPLTLQARMSCEQKAEGHSSGSWQFSFDGQIFLLFDSEKRMWTTVHPGARKMKEKWENDKVVAMSFHYFSMGDCIGWLEDFLMGMDSTLEPS", "notes": "Rituximab IgG1 with wild-type ULBP2 α1-α2 domain fused to the light chain; bivalent for the α1-α2 domain; also called ULBP2 MicAbody; ULBP2 wild-type MicAbody"}, "B2": {"name": "rituximab-ULBP2.R MicAbody (bispecific antibody, human IgG1, kappa)", "heavy": "not shown", "light": "B1 light with R302W, M376T, S377L, F378L, H379W, Y380G, F381W", "notes": "also called ULBP2.R rituximab-MicAbody; rituximab-MicAbody"}, "B3": {"name": "rituximab-ULBP2.S3 MicAbody (bispecific antibody, human IgG1, kappa)", "heavy": "not shown", "light": "B1 light with R302W, M376T, S377K, F378L, H379Y, Y380L, F381W", "notes": "also called ULBP2.S3 as a MicAbody"}, "B4": {"name": "ULBP2.S3 α1-α2 domain, monomeric His-tagged format (ligand)", "chain": "EPHSLSYDITVIPKFRPGPRWCAVQGQVDEKTFLHYDCGNKTVTPVSPLGKKLNVTTAWKAQNPVLREVVDILTEQLWDIQLENYTPKEPLTLQARMSCEQKAEGHSSGSWQFSFDGQIFLLFDSEKRMWTTVHPGARKMKEKWENDKVVATKLYLWSMGDCIGWLEDFLMGMDSTLEPS", "notes": "also called ULBP2.S3 (monomeric His-tagged); not shown: His tag"}, "B5": {"name": "rituximab-ULBP2.R80W MicAbody (bispecific antibody, human IgG1, kappa, N297A)", "heavy": "QVQLQQPGAELVKPGASVKMSCKASGYTFTSYNMHWVKQTPGRGLEWIGAIYPGNGDTSYNQKFKGKATLTADKSSSTAYMQLSSLTSEDSAVYYCARSTYYGGDWYFNVWGAGTTVTVSAASTKGPSVFPLAPSSKSTSGGTAALGCLVKDYFPEPVTVSWNSGALTSGVHTFPAVLQSSGLYSLSSVVTVPSSSLGTQTYICNVNHKPSNTKVDKKVEPKSCDKTHTCPPCPAPELLGGPSVFLFPPKPKDTLMISRTPEVTCVVVAVSHEDPEVKFNWYVDGVEVHNAKTKPREEQYASTYRVVSVLTVLHQDWLNGKEYKCKVSNKALPAPIEKTISKAKGQPREPQVYTLPPSRDELTKNQVSLTCLVKGFYPSDIAVEWESNGQPENNYKTTPPVLDSDGSFFLYSKLTVDKSRWQQGNVFSCSVMHEALHNHYTQKSLSLSPGGGGSEPHSLSYDITVIPKFRPGPRWCAVQGQVDEKTFLHYDCGNKTVTPVSPLGKKLNVTTAWKAQNPVLREVVDILTEQLWDIQLENYTPKEPLTLQARMSCEQKAEGHSSGSWQFSFDGQIFLLFDSEKRMWTTVHPGARKMKEKWENDKVVAMSFHYFSMGDCIGWLEDFLMGMDSTLEPS", "light": "QIVLSQSPAILSASPGEKVTMTCRASSSVSYIHWFQQKPGSSPKPWIYATSNLASGVPVRFSGSGSGTSYSLTISRVEAEDAATYYCQQWTSNPPTFGGGTKLEIKTVAAPSVFIFPPSDEQLKSGTASVVCLLNNFYPREAKVQWKVDNALQSGNSQESVTEQDSKDSTYSLSSTLTLSKADYEKHKVYACEVTHQGLSSPVTKSFNRGEC"}, "B6": {"name": "rituximab-ULBP2.C MicAbody (bispecific antibody, human IgG1, kappa)", "heavy": "not shown", "light": "QIVLSQSPAILSASPGEKVTMTCRASSSVSYIHWFQQKPGSSPKPWIYATSNLASGVPVRFSGSGSGTSYSLTISRVEAEDAATYYCQQWTSNPPTFGGGTKLEIKTVAAPSVFIFPPSDEQLKSGTASVVCLLNNFYPREAKVQWKVDNALQSGNSQESVTEQDSKDSTYSLSSTLTLSKADYEKHKVYACEVTHQGLSSPVTKSFNRGECAPTSSSGGGGSEPHSLSYDITVIPKFRPGPRWCAVQGQVDEKTFLHYDCGNKTVTPVSPLGKKLNVTTAWKAQNPVLREVVDILTEQLWDIQLENYTPKEPLTLQARMSCEQKAEGHSSGSWQFSFDGQIFLLFDSEKRMWTTVHPGARKMKEKWENDKVVATILWQTSMGDCIGWLEDFLMGMDSTLEPS"}}, "key": {"[1]": {"target": "T1, Fc-NKG2D.Y152A (human)", "T1 construct": "also called NKG2D.YA; Fc-NKG2D.YA", "T1 sequence (chain, as listed by the source Y152A Y152A limits assumed)": "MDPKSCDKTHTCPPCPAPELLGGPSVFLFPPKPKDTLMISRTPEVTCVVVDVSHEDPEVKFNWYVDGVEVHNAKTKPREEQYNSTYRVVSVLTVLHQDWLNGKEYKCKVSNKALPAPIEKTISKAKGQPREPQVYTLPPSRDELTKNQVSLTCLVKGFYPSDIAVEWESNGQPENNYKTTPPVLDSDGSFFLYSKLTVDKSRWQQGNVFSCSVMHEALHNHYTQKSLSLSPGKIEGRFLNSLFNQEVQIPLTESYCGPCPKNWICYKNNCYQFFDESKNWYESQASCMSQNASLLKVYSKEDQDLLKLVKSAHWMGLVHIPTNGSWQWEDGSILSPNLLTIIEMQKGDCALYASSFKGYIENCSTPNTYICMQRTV", "experiment": "ELISA, Fc-eNKG2D coated, MicAbody titrated from 300 nM", "protocol": "(§1) The binding affinities of α1-α2 variants to the extracellular domains of natural (wild-type) NKG2D and non-natural eNKG2D proteins were analyzed using a plate-based ELISA method. […] The plates were washed three times in PBS/0.05% Tween-20 (PBS-T) at 20-22° C., and blocked with 0.5% bovine serum albumin in PBS (PBS-B) for 2 hours at 20-22° C."}, "[2]": {"target": "T2, Fc-NKG2D.wt (natural human NKG2D ectodomain fused to the C-terminus of human IgG1 Fc) (human)", "T2 construct": "also called natural Fc-NKG2D; wild-type Fc-NKG2D", "T2 sequence (chain, as listed by the source limits assumed)": "as the sequence (chain, as listed by the source Y152A Y152A limits assumed) above, with A312Y counted along it", "experiment": "ELISA, Fc-NKG2D coated, MicAbody titrated from 300 nM (GraphPad Prism)", "protocol": "as §1"}, "[3]": {"target": "T2, Fc-NKG2D.wt (natural human NKG2D …)", "experiment": "ELISA, Fc-NKG2D coated, rituximab MicAbody titrated (FIGS. 16A and 16B)"}, "[4]": {"target": "T1, Fc-NKG2D.Y152A", "experiment": "ELISA, Fc-NKG2D coated, rituximab MicAbody titrated (FIGS. 16A and 16B)"}, "[5]": {"target": "Fc-NKG2D.AF, eNKG2D5 (Y152A/Y199F) (human)", "sequence (chain, as listed by the source Y152A Y199F Y152A Y199F limits assumed)": "as the sequence (chain, as listed by the source Y152A Y152A limits assumed) above, with Y359F counted along it", "experiment": "ELISA, Fc-NKG2D coated, rituximab MicAbody titrated (FIGS. 16A and 16B)"}, "[6]": {"target": "T1, Fc-NKG2D.Y152A", "experiment": "ELISA and Octet"}, "[7]": {"target": "T2, Fc-NKG2D.wt (natural human NKG2D …)", "experiment": "ELISA, rituximab MicAbody on Fc-NKG2D (legend of FIGS. 16A and 16B)"}, "[8]": {"target": "T2, Fc-NKG2D.wt (natural human NKG2D …)", "experiment": "titration ELISA, Fc-NKG2D coated, rituximab MicAbody titrated"}}, "note": "Numbering of substitutions follows the chain as printed. Numbers in names are those of the source.", "data": [{"binder": "B1", "values": [{"measurement": "binding result", "setting": "[1]", "result": "binds"}, {"measurement": "Kd", "setting": "[2]", "result": 1.4, "unit": "nM"}]}, {"binder": "B2", "values": [{"measurement": "binding result", "setting": "[3]", "result": "no binding"}, {"measurement": "binding result", "setting": "[4]", "result": "no binding"}]}, {"binder": "B3", "values": [{"measurement": "binding result", "setting": "[3]", "result": "no binding"}, {"measurement": "binding result", "setting": "[5]", "result": "no binding"}]}, {"binder": "B4", "values": [{"measurement": "binding result", "setting": "[6]", "result": "binds"}]}, {"binder": "B5", "values": [{"measurement": "binding result", "setting": "[7]", "result": "binds"}]}, {"binder": "B6", "values": [{"measurement": "binding result", "setting": "[8]", "result": "no binding"}]}]}
